B1: IRX6 (parent)
chain: YPCLEKPRIWSLAHTATASAVEGA
B2: ZNF8 (parent)
chain: KPYTCSVCGKSFSRTTCLFLHLRT

Variants of: B1
Experiment: protein stability index of a GFP-peptide fusion (GPS, HEK-293T) (PSI 1-6); higher = more stable
Conditions: c terminus: a fixed tail appended
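Also: lentivirally expressed fusions sorted by FACS into six bins by GFP to DsRed ratio, PSI derived from sequencing read proportions per bin multiplied by bin number.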

Protein stability index of substitutions, site by site:
I9: A 3.17 | R 2.27
S11: V 1.99 | K 2.58 | E 1.99 | D 1.74 | L 1.87 | C 1.61
S19: W 3.1 | Y 4.1
P2: S 1.7 | D 2.28
E22: M 3.75 | V 2.62
T15: W 2.34 | I 1.72 | G 1.75 | R 3.79
A24: C 2.18 | K 3.48
L4: Q 1.49 | P 2.5 | K 2.37 | T 3.03
R8: H 1.83 | Q 1.96 | D 3.96 | F 2.49
A20: K 3.07 | N 2.87 | F 1.69 | E 1.86 | Y 4.34
C3: V 1.66 | T 2.85 | G 2.91 | H 2.16 | S 2.46 | E 1.85
Y1: I 2.88 | D 3.84 | R 3.33 | G 3.53 | S 3.81 | W 2.82
W10: T 4.09 | Y 1.62 | K 4.42 | E 4.71
G23: A 2.6 | W 1.98
A13: H 2.74 | Q 2.46
H14: E 1.84
T17: Y 2.64 | A 1.71
A16: S 1.93 | P 1.53
P7: M 2.92 | V 1.89 | K 3.5 | D 4.03
A18: D 1.78 | R 3.8
L12: G 2.03 | V 1.58 | P 3.53
V21: L 1.1 | H 2.21 | M 1.82

Variants of: B2
Experiment: as above
Conditions: c terminus: a fixed tail appended

Protein stability index, by site and new letter:
T24: A 1.96 | N 2.35 | R 2.04 | G 2.37 | V 2.2 | K 2.29 | F 2.02 | M 2.44 | H 2.96 | C 2.07 | E 1.67 | Y 1.68 | L 1.58 | S 1.89 | P 2.19 | Q 1.9 | I 1.52 | D 2.12 | W 2.5
C17: T 2.42 | N 1.96 | I 2.14 | M 2.13 | F 1.92 | K 2.35 | D 3.67 | Q 2.58 | L 2.39 | G 2.22 | W 1.5 | S 1.84 | V 1.85 | E 3.61 | Y 2.15 | P 1.91 | R 2.35 | A 2.19 | H 2.04
L18: R 1.67 | A 2.19 | P 2.32 | S 1.89 | I 2.49 | W 2.18 | M 2.33 | Y 2.43 | G 2.44 | Q 2.11 | C 2.31 | H 1.96 | N 2.49 | T 2.27 | F 1.95 | E 2.45 | D 2.2 | V 2.27 | K 2.9
R23: M 2.23 | N 1.75 | Q 2.59 | G 1.9 | W 1.75 | A 2.29 | K 2.06 | L 1.65 | P 2.5 | T 1.95 | C 2.06 | S 1.83 | I 2.05 | F 1.64 | E 2.26 | H 2.32 | D 1.91 | V 2 | Y 1.84
T15: H 1.83 | Y 2.31 | E 2.64 | V 2.44 | W 2.1 | C 2.49 | Q 2.61 | M 2.73 | S 2.4 | A 2.45 | I 2.62 | L 2.29 | P 2.47 | N 2.02 | F 2.9 | D 2.9 | K 2.39 | R 2.58 | G 1.54
S13: H 1.63 | M 1.88 | W 1.87 | A 2.43 | N 1.76 | Q 2.38 | P 2.16 | V 2.15 | L 1.48 | D 1.94 | R 2 | T 1.86 | K 2.06 | I 1.67 | Y 1.75 | F 1.82 | C 2.71 | G 1.62 | E 2.57
T16: E 2.25 | P 2.67 | D 2.27 | I 2.44 | F 1.39 | N 2.73 | Y 2.03 | L 1.79 | K 1.56 | M 1.98 | V 1.68 | A 2.16 | S 2.17 | W 2.19 | H 2.36 | R 1.82 | G 2.6 | C 1.94 | Q 2.73
L20: T 2.65 | H 2.79 | R 2.42 | C 2.63 | G 2.1 | F 2.14 | Y 1.94 | W 1.39 | E 3.07 | D 2.11 | M 1.74 | P 2.27 | N 2.56 | A 2.66 | I 1.99 | Q 2.96 | S 2.17 | K 2.32
L22: W 1.74 | S 2.11 | F 1.82 | D 2.04 | G 2.03 | M 3.01 | H 1.81 | A 2.08 | V 1.85 | C 2.24 | K 2.74 | T 2.1 | P 2.78 | Y 1.8 | R 2.34 | E 2.31 | I 1.96 | N 2.57
F12: N 2.4 | V 1.73 | Y 2.15 | T 1.37 | H 2.35 | W 1.72 | I 3.27 | L 1.83 | S 1.87 | G 2.27 | M 2.45 | C 1.54 | Q 1.58 | D 2.22 | K 2.88 | A 1.76 | R 1.62 | E 1.77 | P 1.75
F19: R 2.35 | Y 2.44 | S 2.03 | A 1.98 | G 1.93 | T 1.78 | H 2.26 | P 2.45 | I 1.91 | C 3.11 | Q 2.54 | V 1.9 | E 2.57 | L 1.73 | K 1.93 | D 2.79 | W 1.57 | N 2.36 | M 2.35
S11: D 1.88 | C 1.91 | Q 2.21 | V 1.84 | Y 2.2 | M 1.76 | A 2.08 | E 2.67 | P 1.72 | K 2.92 | F 1.72 | H 3.04 | G 1.51 | L 1.69 | R 2.12 | I 2.33 | W 1.71 | T 2.2 | N 2.12
R14: M 1.68 | C 3.41 | V 3.3 | H 2.3 | N 3.12 | S 3.13 | Y 1.93 | K 2.12 | W 1.66 | A 2.39 | P 2.45 | D 3.85 | L 1.65 | E 2.7 | G 1.89 | I 2.66 | F 1.6 | T 3.19 | Q 3.25
H21: L 2.39 | E 2.31 | T 1.56 | C 2.37 | S 2.04 | W 1.75 | F 1.65 | M 2.16 | D 1.35 | N 1.6 | R 1.4 | A 2.18 | I 1.59 | V 1.8 | Y 1.57 | G 1.94 | P 2.01 | Q 2.28 | K 2.04

Source: the supplement of paper PMC10567573
